Results published in patent US20220340673A1 (HARBOUR BIOMED SUZHOU, published 2022).

Experiments:
[1] = target: T1, human BCMA on cells (HEK293T/huBCMA; NCI-H929) (human, UniProt Q02223 1-184); test: FACS on NCI-H929 cell line [B]
T1 construct: whole, on cells; also called human BCMA molecules on NCI-H929 cell line
T1 sequence (looked up): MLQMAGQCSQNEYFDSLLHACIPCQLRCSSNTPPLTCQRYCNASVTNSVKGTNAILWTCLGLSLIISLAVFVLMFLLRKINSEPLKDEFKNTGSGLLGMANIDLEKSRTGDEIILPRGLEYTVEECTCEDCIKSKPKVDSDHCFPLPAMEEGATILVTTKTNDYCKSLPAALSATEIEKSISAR
Procedure: To study the binding activity of the BCMA arm of the BCMA×CD3 bispecific antibody to human BCMA, NCI-H929 cell line with highly expressed BCMA was used for binding experiments with human BCMA at cellular level. Briefly, NCI-H929 cell suspensions were collected. The cell density was adjusted to 1×10⁶ cells/mL, and the cells were inoculated in 96 well V-bottom plates at 100 μL cells/well (Corning, Cat#: 3894), followed by the addition of test antibodies at 100 μL/well, which is gradient diluted at 3 folds of the concentration with 2 folds of the final concentration. Cells were incubated at 4° C. for 2 hours in the dark. Afterwards, cells were washed twice with 100 μL/well of pre-cooled PBS, centrifuged at 500 g for 5 min at 4° C., and followed by discarding the supernatant. 100 μL/well of fluorescent secondary antibody (Alexa Fluor 488-conjugated AffiniPure Goat Anti-Human IgG, Fcγ Fragment Specific, Jackson, Cat#:109-545-06, 1:500 dilution) was added and incubated at 4° C. for 1 hour in the dark. Cells were washed twice with 100 μL/well of pre-cooled PBS, centrifuged at 500 g, 4° C. for 5 min, and followed by discarding the supernatant. Finally, the cells were resuspended with 200 μL/well of pre-cooled PBS, and the fluorescence luminescence signal values were read by BD FACS CANTOII.

[2] = target: T1, human BCMA on cells (HEK293T/huBCMA; …); test: FACS on NCI-H929 cell line [D]
Procedure: (§1) This example was conducted to study the binding activity of anti human BCMA HCAb monoclonal antibodies to human and cynomolgus monkey BCMA in vitro. HEK293T cell strain (HEK293T/huBCMA, Beijing Kang yuan) overexpressing human BCMA, HEK293T cell strain (HEK293T/cynoBCMA, Beijing Kang yuan) overexpressing cynomolgus monkey BCMA and NCI- H929 cell line (ATCC® CRL-9068TM) highly expressing human BCMA were used for antibody binding assay at cellular level. Briefly, HEK293T/huBCMA cells and HEK293T/cynoBCMA cells were digested and resuspended with DMEM complete medium, and NCI-H929 cell suspensions were collected by resuspension with DMEM complete medium. The density of the three cells was adjusted to 1×10⁶ cells/mL, respectively. The cells were inoculated at 100 μL cells/well in 96 well V-bottom plates (Corning, Cat#: 3894), followed by the addition of test antibodies at 100 μL/well, which is gradient diluted at 3 folds of the concentration with 2 folds of the final concentration. Cells were incubated at 4° C. for 1 hours in the dark. Afterwards, the cells were washed twice with 100 μL/well of pre-cooled PBS, centrifuged at 500 g for 5 min at 4° C. and followed by discarding the supernatant. […] Finally, the cells were resuspended with 200 μL/well of pre-cooled PBS and the fluorescent luminescence signal values were read by using BD FACS CANTOII.

[3] = target: T1, human BCMA on cells (HEK293T/huBCMA; …); test: FACS on HEK293T cell strain overexpressing human BCMA [D]
Procedure: as §1

[4] = target: T2, cynomolgus monkey BCMA on cells (HEK293T/cynoBCMA) (cynomolgus monkey, UniProt A0A2K5UD97 1-183); test: FACS on HEK293T cell strain overexpressing cynomolgus monkey BCMA [D]
T2 construct: whole, on cells
T2 sequence (A0A2K5UD97 entry or part of it): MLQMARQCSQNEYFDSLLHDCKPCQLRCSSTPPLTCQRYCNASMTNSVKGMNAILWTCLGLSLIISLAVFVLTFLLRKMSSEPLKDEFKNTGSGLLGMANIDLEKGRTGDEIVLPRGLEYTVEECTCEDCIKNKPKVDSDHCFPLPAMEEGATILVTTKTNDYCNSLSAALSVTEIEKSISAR
Procedure: as §1

[5] = target: T3, human BCMA protein with Fc Tag (ACRO, Cat#: BC7-H5254) (human, UniProt Q02223 1-54); test: ELISA, plate coated with human BCMA-Fc; antibody blocks the binding of biotinylated human BAFF [B]
T3 construct: Bought reagent coated on the ELISA plate; not shown: Fc tag of the bought protein
T3 sequence (looked up): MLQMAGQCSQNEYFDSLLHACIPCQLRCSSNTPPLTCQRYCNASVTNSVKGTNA
Procedure: This example was conducted to evaluate the blockage ability of anti-human BCMA HCAb monoclonal antibody to the binding of human BCMA (ACRO, BCA-H522y-100 μg) with ligand BAFF protein (ACRO, BAF-H5248-50 μg). The BAFF protein was biotinylated by using a biotinylation kit (ThermoFisher, A39257, EZ-Link Sulfo-NHS-LC-Biotin) according to the instructions. The plates (Corning, Cat#: 9018) were coated with 1 μg/mL of human BCMA protein with Fc Tag (ACRO, Cat#: BC7-H5254) overnight. The plates were washed for 3 times with PBST, added with 2% BSA and then sealed at room temperature for 1 hour. The plates were washed with PBST for 3 times, and added with test antibody gradient diluted at 3 folds concentration 100 μL/well, with an initial concentration of 50 nM. After being incubated for 1h, the supernatant was discarded and 0.5 μg/mL of biotinylated human BAFF protein (prepared according to conventional methods in the art) was added to the plates at 100 μL/well. The plates were incubated at room temperature for 1 h and discarded the supernatant. Streptavidin-coupled HRP (Bio-RAD, Cat#: 1610380) with 1: 4000 diluted was added at 100 μL/well. The plates were incubated for 1 h at room temperature and washed with PBST for 3 times. […] OD450 values were read by using Enspire (Perkin Elmer).

Binder	EC50 [1] [nM]	EC50 [2] [nM]	EC50 [3] [nM]	EC50 [4] [nM]	IC50 [5] [nM]
BCMA x CD3 bispecific antibody PR002299 (bispecific antibody, human IgG1, lambda, L234A L235A) heavy 1: EVQLLESGGGLVQPGGSLRLSCAASGFTFSTYAMNWVRQAPGKGLEWVSRIRSKYNNYATYYADSVKDRFTISRDDSKSTLYLQMNSLRAEDTAVYYCVRHGNFGNSYVSWFAYWGQGTLVTVSSASTKGPSVFPLAPSSKSTSGGTAALGCLVKDYFPEPVTVSWNSGALTSGVHTFPAVLQSSGLYSLSSVVTVPSSSLGTQTYICNVNHKPSNTKVDKKVEPKSCDKTHTCPPCPAPEAAGGPSVFLFPPKPKDTLMISRTPEVTCVVVDVSHEDPEVKFNWYVDGVEVHNAKTKPREEQYNSTYRVVSVLTVLHQDWLNGKEYKCKVSNKALGAPIEKTISKAKGQPREPQVYTLPPCREEMTKNQVSLWCLVKGFYPSDIAVEWESNGQPENNYKTTPPVLDSDGSFFLYSKLTVDKSRWQQGNVFSCSVMHEALHNHYTQKSLSLSPGK light: QAVVTQEPSLTVSPGGTVTLTCRSSTGAVTTSNYANWVQQKPGQAPRGLIGGTNKRAPWTPARFSGSLLGDKAALTLLGAQPEDEAEYFCALWYSNLWVFGGGTKLTVLGQPKAAPSVTLFPPSSEELQANKATLVCLISDFYPGAVTVAWKADSSPVKAGVETTTPSKQSNNKYAASSYLSLTPEQWKSHRSYSCQVTHEGSTVEKTVAPTECS heavy 2: EVQLLESGGGLVQPGGSLRLSCAASGFTFSSYAMIWVRQAPGKGLEWVSGISESGGSTYYADSVKGRFTISRDNSKNTLYLQMNSLRAEDTAVYFCVKDLDDILTGYYKDYWGQGTLVTVSSRTGGGGSKLEVQLLESGGGLVQPGGSLRLSCAASGFTFSSYAMIWVRQAPGKGLEWVSGISESGGSTYYADSVKGRFTISRDNSKNTLYLQMNSLRAEDTAVYFCVKDLDDILTGYYKDYWGQGTLVTVSSASEPKSSDKTHTCPPCPAPEAAGGPSVFLFPPKPKDTLMISRTPEVTCVVVDVSHEDPEVKFNWYVDGVEVHNAKTKPREEQYNSTYRVVSVLTVLHQDWLNGKEYKCKVSNKALGAPIEKTISKAKGQPREPQVCTLPPSREEMTKNQVSLSCAVKGFYPSDIAVEWESNGQPENNYKTTPPVLDSDGSFFLVSKLTVDKSRWQQGNVFSCSVMHEALHNHYTQKSLSLSPGK	57.2				
positive control 1, PR000274 (anti-BCMA antibody CA8-J6M0 hIgG1) (antibody, V domains shown, Full-length hIgG1 control antibody) VH: QVQLVQSGAEVKKPGSSVKVSCKASGGTFSNYWMHWVRQAPGQGLEWMGATYRGHSDTYYNQKFKGRVTITADKSTSTAYMELSSLRSEDTAVYYCARGAIYDGYDVLDNWGQGTLVTVSS VL: DIQMTQSPSSLSASVGDRVTITCSASQDISNYLNWYQQKPGKAPKLLIYYTSNLHSGVPSRFSGSGSGTDFTLTISSLQPEDFATYYCQQYRKLPWTFGQGTKLEIKR		10.8	4.07	4.56	4.36
anti-human BCMA HCAb monoclonal antibody PR001046 (antibody, human IgG1, V domains shown, also called PRO01046; HBM1005P63B7) VH: EVQLVETGGGLIQPGGSLRLSCAASGFTVSDNYMTWVRQAPGKGLEWVSVIFSGGNTYYADSVKGRFTISRDNAKNTLYLQMNSLRAEDTALYYCARRNYDDTRGTDVFDIWGQGTMVTVSS		1.53	0.213	0.564	2.94
